Reference: US20120058120A1, “Targets for Growth Factor Signalling and Methods of Therapy” (priority 2009, published 2012)

T1: FXIII (Homo sapiens, UniProt P00488)
T1 sequence (P00488 1-732): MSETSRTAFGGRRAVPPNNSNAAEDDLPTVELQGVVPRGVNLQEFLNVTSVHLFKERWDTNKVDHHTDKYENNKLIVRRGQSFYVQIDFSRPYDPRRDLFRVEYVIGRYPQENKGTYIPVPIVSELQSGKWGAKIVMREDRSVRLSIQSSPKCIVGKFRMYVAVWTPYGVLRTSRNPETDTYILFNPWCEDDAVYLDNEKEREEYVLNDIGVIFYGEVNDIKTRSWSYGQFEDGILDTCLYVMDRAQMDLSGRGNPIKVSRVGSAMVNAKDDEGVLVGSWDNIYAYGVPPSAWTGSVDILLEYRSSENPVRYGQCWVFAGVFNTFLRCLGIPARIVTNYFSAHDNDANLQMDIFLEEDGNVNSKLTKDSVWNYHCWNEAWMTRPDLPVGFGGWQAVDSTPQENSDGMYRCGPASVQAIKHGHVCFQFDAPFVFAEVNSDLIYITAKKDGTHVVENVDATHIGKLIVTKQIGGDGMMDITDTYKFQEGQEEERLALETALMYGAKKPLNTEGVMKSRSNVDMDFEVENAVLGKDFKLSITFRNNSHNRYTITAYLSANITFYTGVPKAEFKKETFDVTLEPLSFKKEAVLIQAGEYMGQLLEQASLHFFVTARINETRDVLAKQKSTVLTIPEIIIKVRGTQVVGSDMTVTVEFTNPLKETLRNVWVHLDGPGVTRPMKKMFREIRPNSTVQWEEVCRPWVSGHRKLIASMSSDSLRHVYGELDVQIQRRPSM

T2: TG2 (Homo sapiens, UniProt P21980)
T2 sequence (P21980 1-687): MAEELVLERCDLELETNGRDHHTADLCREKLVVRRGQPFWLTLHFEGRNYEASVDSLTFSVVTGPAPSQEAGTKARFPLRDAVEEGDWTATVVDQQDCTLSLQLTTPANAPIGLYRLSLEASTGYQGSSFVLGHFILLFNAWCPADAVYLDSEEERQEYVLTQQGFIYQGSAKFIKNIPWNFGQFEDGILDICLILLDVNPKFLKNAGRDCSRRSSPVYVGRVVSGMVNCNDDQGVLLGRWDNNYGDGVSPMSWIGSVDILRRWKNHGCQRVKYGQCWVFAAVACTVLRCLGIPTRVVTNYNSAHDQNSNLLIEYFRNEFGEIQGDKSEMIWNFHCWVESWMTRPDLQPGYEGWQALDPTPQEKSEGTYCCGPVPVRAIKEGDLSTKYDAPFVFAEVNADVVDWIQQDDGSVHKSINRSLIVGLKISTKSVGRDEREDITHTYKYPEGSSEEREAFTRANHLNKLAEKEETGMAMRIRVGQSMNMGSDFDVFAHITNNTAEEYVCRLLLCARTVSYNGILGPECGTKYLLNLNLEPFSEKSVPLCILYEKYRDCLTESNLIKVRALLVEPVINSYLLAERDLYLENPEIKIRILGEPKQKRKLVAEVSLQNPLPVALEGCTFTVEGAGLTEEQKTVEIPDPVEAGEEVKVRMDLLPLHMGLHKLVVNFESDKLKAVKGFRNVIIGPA

B1: factor XIII (FXIII) (protein)
chain: SETSRTAFGGRRAVPPNNSNAAEDDLPTVELQGVVPRGVNLQEFLNVTSVHLFKERWDTNKVDHHTDKYENNKLIVRRGQSFYVQIDFSRPYDPRRDLFRVEYVIGRYPQENKGTYIPVPIVSELQSGKWGAKIVMREDRSVRLSIQSSPKCIVGKFRMYVAVWTPYGVLRTSRNPETDTYILFNPWCEDDAVYLDNEKEREEYVLNDIGVIFYGEVNDIKTRSWSYGQFEDGILDTCLYVMDRAQMDLSGRGNPIKVSRVGSAMVNAKDDEGVLVGSWDNIYAYGVPPSAWTGSVDILLEYRSSENPVRYGQCWVFAGVFNTFLRCLGIPARIVTNYFSAHDNDANLQMDIFLEEDGNVNSKLTKDSVWNYHCWNEAWMTRPDLPVGFGGWQAVDSTPQENSDGMYRCGPASVQAIKHGHVCFQFDAPFVFAEVNSDLIYITAKKDGTHVVENVDATHIGKLIVTKQIGGDGMMDITDTYKFQEGQEEERLALETALMYGAKKPLNTEGVMKSRSNVDMDFEVENAVLGKDFKLSITFRNNSHNRYTITAYLSANITFYTGVPKAEFKKETFDVTLEPLSFKKEAVLIQAGEYMGQLLEQASLHFFVTARINETRDVLAKQKSTVLTIPEIIIKVRGTQVVGSDMTVTVEFTNPLKETLRNVWVHLDGPGVTRPMKKMFREIRPNSTVQWEEVCRPWVSGHRKLIASMSSDSLRHVYGELDVQIQRRPSM

Tests used:
FXIII = target: T1, FXIII; experiment: IGF-I incubated with FXIII and PEG functionalized with Q- or K-donor TG substrate peptide, IGF-I Western blot; type: biochemical; conditions: after 1 h; Q-donor vs K-donor PEG
Protocol: FIG. 1 (a) IGF-I Western blot after reaction for 60 minutes with FXIII and PEG derivatized with a glutamine (left lane) or lysine FXIII substrate (right lane). […] (b) 3D structure of IGF-I, with the putative FXIII site at the D domain shown relative to residues identified as important for receptor binding.
In the present experiments, IGF-I was incubated with FXIII and PEG functionalized with either a glutamine (Q)- or lysine (K)-donor TG substrate peptide.

TG2 [1] = target: T2, TG2; experiment: Reaction of IGF-I with TG2, with or without the Gln-donor substrate glucagon; type: biochemical
Text: FIG. 4 Reaction of IGF-I with glucagon catalysed by TG2. Lane 1: IGF-I control; 2: IGF-I+TG2; 3: TG2 control; 4: Gn control; 5: IGF-I+Gn; 6: TG2+Gn; 7: TG2+Gn+IGF-I. (Gn=glucagon)
In order to confirm this finding, we repeated this experiment using TG2 rather than FXIII, and the known TG2 Gln-donor substrate glucagon (Gn) as a probe (FIG. 4). […] The large band >75 kDa in lane 2 is apparently due to the formation of covalent complexes between IGF-I and TG2 itself; polymerization of IGF-I is also evident. Reaction of IGF-I with Gn (lane 7) also produced polymeric species. A band of MW consistent with (IGF-I)1Gn1 is indicated by an arrow.

TG2 [2] = target: T2, TG2; experiment: TG2-catalysed crosslinking of IGF-I to recombinant extracellular domain of IGF1R, IGF-I Western blot; type: biochemical; conditions: TG2 0.70 μM, IGF-I 25 μg/mL, IGF1R 25 μg/mL, 1 hour, 1 mM CaCl2, pH 7.5
Protocol: TG2 (0.70 μM) was reacted with IGF-I (25 μg/mL) and/or recombinant extracellular domain of IGF1R (25 μg/mL; commercially available from R&D Systems) for 1 hour in the presence of 1 mM CaCl2, pH 7.5. At this point, the reaction was stopped by the addition of SDS-PAGE loading buffer. Samples were run through a 4%-12% SDS-PAGE gel, transferred to a PVDF membrane and probed for IGF-I using a goat anti-human IGF-I primary (1:5000 dilution) and HRP-conjugated rabbit anti-goat secondary (1:10,000), and visualised using chemiluminescence.
For it to be able to do this, both IGF-I and the IGF1R would have to be transglutaminase substrates. Because TG2 catalyses the formation of an isopeptide bond which is essentially as stable as a peptide backbone bond, the complex formed will not be broken apart under reducing SDS-PAGE conditions (whereas disulfide and non-covalent interactions will be broken).
So, in this assay we reacted IGF-I and the soluble recombinant extracellular portion of the receptor with TG2, and probed for where IGF-I ended up using a standard Western blot approach. The “smoking gun” for a reaction would be staining for IGF-I appearing at a molecular weight corresponding to […]. […]

[3] = target: insulin-like growth factor I (IGF-I), P05019
insulin-like growth factor I (IGF-I), P05019, sequence (P05019 whole entry, looked up): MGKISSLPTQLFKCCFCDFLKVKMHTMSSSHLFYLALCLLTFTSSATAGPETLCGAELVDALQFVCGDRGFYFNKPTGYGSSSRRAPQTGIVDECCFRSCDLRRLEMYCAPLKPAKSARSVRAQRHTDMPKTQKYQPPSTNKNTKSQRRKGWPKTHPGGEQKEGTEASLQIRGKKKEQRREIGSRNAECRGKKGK

Molecule	incorporation of IGF-I into TG substrate-functionalized PEG (FXIII)	products of reaction of IGF-I alone with TG2 (TG2 [1]; lane 2, IGF-I+TG2)	products of reaction of IGF-I with glucagon catalysed by TG2 (TG2 [1]; lane 7, TG2+Gn+IGF-I)	crosslinking of IGF-I to IGF1R by TG2 (TG2 [2])	Western blot for IGF-I after 1 h reaction with FXIII and PEG carrying a glutamine- or lysine-donor TG substrate peptide [3]
IGF-I: insulin-like growth factor I, tested as transglutaminase substrate	quantitatively incorporated into the Q-donor, but not the K-donor PEG	produced a series of bands corresponding to IGF-I oligomers	produced a wide range of molecular weight species	TG2 recognises sites on both the IGF1R and IGF-I, and is able to bind the two together	–
B1	–	–	–	–	after 1 h IGF-I was quantitatively incorporated into the Q-donor, but not the K-donor PEG
